# Laboratory results from PMC4514735, “The FKBP52 Cochaperone Acts in Synergy with β-Catenin to Potentiate Androgen Receptor Signaling” (PLoS ONE, 2015).
# T1: Gal4 DNA binding domain (DBD)-AR LBD chimeric protein (UniProt P10275 669-920)
# T1 construct: also called Gal4-AR LBD; Gal4-DBD fused to the AR LBD; source: in cells (two-hybrid) and in lysate (co-IP)
# T1 sequence (looked up): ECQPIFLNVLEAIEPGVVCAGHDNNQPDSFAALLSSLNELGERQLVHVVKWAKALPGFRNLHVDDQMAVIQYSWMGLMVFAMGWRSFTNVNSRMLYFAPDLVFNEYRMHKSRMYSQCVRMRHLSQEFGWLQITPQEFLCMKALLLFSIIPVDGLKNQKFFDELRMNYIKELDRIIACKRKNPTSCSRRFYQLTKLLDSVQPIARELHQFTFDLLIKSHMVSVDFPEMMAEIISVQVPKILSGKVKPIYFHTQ
# B1: VP16-AD fused to the full-length β-catenin (natural protein, UniProt P35222 1-781, looked up)
# chain: MATQADLMELDMAMEPDRKAAVSHWQQQSYLDSGIHSGATTTAPSLSGKGNPEEEDVDTSQVLYEWEQGFSQSFTQEQVADIDGQYAMTRAQRVRAAMFPETLDEGMQIPSTQFDAAHPTNVQRLAEPSQMLKHAVVNLINYQDDAELATRAIPELTKLLNDEDQVVVNKAAVMVHQLSKKEASRHAIMRSPQMVSAIVRTMQNTNDVETARCTAGTLHNLSHHREGLLAIFKSGGIPALVKMLGSPVDSVLFYAITTLHNLLLHQEGAKMAVRLAGGLQKMVALLNKTNVKFLAITTDCLQILAYGNQESKLIILASGGPQALVNIMRTYTYEKLLWTTSRVLKVLSVCSSNKPAIVEAGGMQALGLHLTDPSQRLVQNCLWTLRNLSDAATKQEGMEGLLGTLVQLLGSDDINVVTCAAGILSNLTCNNYKNKMMVCQVGGIEALVRTVLRAGDREDITEPAICALRHLTSRHQEAEMAQNAVRLHYGLPVVVKLLHPPSHWPLIKATVGLIRNLALCPANHAPLREQGAIPRLVQLLVRAHQDTQRRTSMGGTQQQFVEGVRMEEIVEGCTGALHILARDVHNRIVIRGLNTIPLFVQLLYSPIENIQRVAAGVLCELAQDKEAAEAIEAEGATAPLTELLHSRNEGVATYAAAVLFRMSEDKPQDYKKRLSVELTSSLFRTEPMAWNETADLGLDIGAQGEPLGYRQDDPSYRSFHSGGYGQDALGMDPMMEHEMGGHHPGADYPVDGLPDLGHAQDLMDGLPPGDSNQLAWFDTDL
# notes: β-catenin, full length; NheI-XbaI fragment of pCI-neo-β-catenin inserted into the pACT vector (Promega); also called Vp16-β-catenin; VP16-β-catenin
# Molecular target: T1, Gal4 DNA binding domain (DBD)-AR LBD …
# Assay: two-hybrid; mammalian two-hybrid in 293T cells, Gal4-tk-luc reporter, 10 nM DHT, with FKBP52 overexpressed
# Conditions: partners not purified
binder,measurement,value
B1,fold enhancement of the two-hybrid signal by overexpressed FKBP52,4.5 fold
